Test results as given in publication PMC3336104 (Molecular Cell, 2012).

Biological target: Glmn, purified, His6-MBP removed (human, UniProt Q92990 1-594)
Assay: SEC

Sequence of Glmn, purified, His6-MBP removed (Q92990 whole entry): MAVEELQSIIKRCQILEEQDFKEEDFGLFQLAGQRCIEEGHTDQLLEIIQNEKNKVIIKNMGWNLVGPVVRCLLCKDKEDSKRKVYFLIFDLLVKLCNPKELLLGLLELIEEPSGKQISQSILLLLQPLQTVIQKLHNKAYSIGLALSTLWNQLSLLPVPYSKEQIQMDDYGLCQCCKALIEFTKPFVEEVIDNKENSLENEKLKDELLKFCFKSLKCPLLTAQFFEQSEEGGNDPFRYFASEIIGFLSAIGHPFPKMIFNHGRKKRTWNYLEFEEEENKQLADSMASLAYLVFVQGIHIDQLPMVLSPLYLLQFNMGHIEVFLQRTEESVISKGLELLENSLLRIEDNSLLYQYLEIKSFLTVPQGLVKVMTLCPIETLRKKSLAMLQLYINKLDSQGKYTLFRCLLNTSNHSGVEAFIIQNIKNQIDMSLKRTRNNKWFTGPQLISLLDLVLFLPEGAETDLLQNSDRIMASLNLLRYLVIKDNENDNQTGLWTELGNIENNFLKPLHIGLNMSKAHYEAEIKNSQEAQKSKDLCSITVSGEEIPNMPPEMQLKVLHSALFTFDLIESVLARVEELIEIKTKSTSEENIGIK

B1: Rbx1^RING, GST removed (domain or fragment)
chain: not shown
binding result: binds
